From patent US20220403031A1 (WUXI BIOLOGICS IRELAND, published 2022)

Tests used:
Factor VIII = assay: non-specific binding ELISA; antigen coated at 2 ug/mL, antibody at 10 ug/ml
Procedure: (§1) Non-specific binding ELISA was performed in 96-well high binding plates (Nunc-Immuno Plate, Thermo Scientific). The plate was coated with various antigens (as listed in the left column of Table 11) at 2 μg/mL overnight at 4° C. After blocking with 2% BSA-PBS, 10 μg/ml antibodies were added to the plate and incubated for 2 hours. […] The HRP signal was detected by adding TMB peroxidase substrate and the reaction was stopped after 12 minutes using 2M HCl. The absorbance at 450 nm was read using a microplate reader (Molecular Device). All incubation steps were performed at room temperature. The plate was washed with PBST (0.05% Tween20-PBS) between steps.

FGFR.his = assay: as above
Procedure: as §1

CD147.his = assay: as above
Procedure: as §1

CTLA4.his = assay: as above
Procedure: as §1

W317-hPro1.his = molecular target: T1, W317-hPro1.his; assay: as above
T1 construct: identity unknown
Procedure: as §1

CD22.his = assay: as above
Procedure: as §1

VEGF.his = assay: as above
Procedure: as §1

CD3.his = assay: as above
Procedure: as §1

CD40 = assay: as above
Procedure: as §1

human serum Albumin = human serum Albumin (human, UniProt P02768 25-609); assay: as above
Procedure: as §1

[1] = molecular target: T2, his-tagged human PD-L1 (R&D-9049-B7), hPro1.ECD.His (human, UniProt Q9NZQ7 19-238); assay: SPR (ProteOn), antibody captured by anti-human IgG Fc, antigen as analyte, 1:1 model
T2 construct: extracellular domain; His tag; also called hPro1.ECD.His (human PD-L1 ECD); human PD-L1 ECD protein (R&D-9049-B7)
Procedure: (§2) Antibodies binding affinities to his-tagged human PD-L1 (R&D-9049-B7), his-tagged cynomolgus PD-L1 (Sino Biological-90251-C08H) and his-tagged mouse PD-L1 (Sino Biological-50010-M08H) were detected by surface plasmon resonance (SPR) assay using the software ProteOn. Testing antibody was captured on anti-human IgG Fc antibody immobilized GLM chip (Bio-rad). The chip was rotated 90° and washed with running buffer until the baseline is stable. hPro1.ECD.His, cynoPro1.ECD.His and mPro1-ECD-His at different concentrations was injected over the sensor chip at a flow rate of 100 uL/min for an association phase of 120 s, followed by 240-800 s dissociation. The chip was regenerated by 10 mM glycine (pH 1.5) following every dissociation phase.
(§3) The sensorgrams for reference channel L1 and buffer channel A6 were subtracted from the test sensorgrams. The experimental data were fitted by 1:1 binding model. Molecular weight of 40 kDa was used to calculate the molar concentration of analyte hPro1.ECD.His (R&D), cynoPro1.ECD.His and mPro1-ECD-His.

[2] = molecular target: T3, his-tagged cynomolgus PD-L1 (Sino Biological-90251-C08H), cynoPro1.ECD.His (cynomolgus, UniProt G7PSE7 19-238); assay: as above
T3 construct: extracellular domain; His tag; also called cynoPro1.ECD.His (cyno PD-L1 ECD)
Procedure: as §2, §3

[3] = molecular target: T4, his-tagged mouse PD-L1 (Sino Biological-50010-M08H), mPro1-ECD-His (mouse, UniProt Q9EP73 19-239); assay: as above
T4 construct: extracellular domain; His tag; also called mPro1-ECD-His (mouse PD-L1 ECD)
Procedure: as §2, §3

T2 sequence (Q9NZQ7 19-238): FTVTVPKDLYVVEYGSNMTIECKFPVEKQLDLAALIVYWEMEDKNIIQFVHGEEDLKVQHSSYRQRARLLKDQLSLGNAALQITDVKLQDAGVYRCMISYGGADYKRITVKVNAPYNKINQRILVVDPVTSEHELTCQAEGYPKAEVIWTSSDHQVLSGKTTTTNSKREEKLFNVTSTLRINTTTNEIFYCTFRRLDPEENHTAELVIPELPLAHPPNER
T3 sequence (G7PSE7 entry or part of it C08H C08H): as the sequence (Q9NZQ7 19-238) above, with A33T, A34S, S62N, R68Q, Q82R, F173L, T185A, T192I, H215L counted along it
T4 sequence (Q9EP73 19-239, stated change not applied): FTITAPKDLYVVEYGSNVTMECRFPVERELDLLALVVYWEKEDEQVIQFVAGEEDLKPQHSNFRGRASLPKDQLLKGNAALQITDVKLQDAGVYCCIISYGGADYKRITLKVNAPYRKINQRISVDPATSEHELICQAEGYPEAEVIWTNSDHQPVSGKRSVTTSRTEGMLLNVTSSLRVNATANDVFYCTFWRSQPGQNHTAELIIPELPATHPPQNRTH
VEGF.his, sequence (P15692 whole entry): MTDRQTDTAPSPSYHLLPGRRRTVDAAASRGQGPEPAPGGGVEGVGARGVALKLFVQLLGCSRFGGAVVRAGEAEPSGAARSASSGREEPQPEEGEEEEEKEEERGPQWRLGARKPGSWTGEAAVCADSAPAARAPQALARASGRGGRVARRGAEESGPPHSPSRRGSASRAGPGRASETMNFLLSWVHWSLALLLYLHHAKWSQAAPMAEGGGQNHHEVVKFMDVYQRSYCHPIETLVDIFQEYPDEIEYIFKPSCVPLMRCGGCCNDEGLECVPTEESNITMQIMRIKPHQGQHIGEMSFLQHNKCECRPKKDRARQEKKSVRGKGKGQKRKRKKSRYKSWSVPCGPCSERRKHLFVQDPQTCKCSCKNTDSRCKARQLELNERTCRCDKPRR
CD40, sequence (P25942 21-193): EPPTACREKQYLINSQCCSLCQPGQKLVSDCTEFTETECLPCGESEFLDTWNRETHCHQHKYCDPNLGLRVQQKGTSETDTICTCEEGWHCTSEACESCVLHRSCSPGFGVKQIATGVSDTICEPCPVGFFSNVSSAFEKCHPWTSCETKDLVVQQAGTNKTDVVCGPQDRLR
CTLA4.his, sequence (P16410 36-161): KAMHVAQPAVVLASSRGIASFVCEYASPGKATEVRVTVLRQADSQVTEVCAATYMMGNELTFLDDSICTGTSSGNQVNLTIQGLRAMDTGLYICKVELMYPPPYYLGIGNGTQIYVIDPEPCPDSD

B1: AP3R2-1A3-z12-hIgG4 (Fc fusion)
chain: EVQLVESGGGLVQPGGSLRLSCAASGHFSNLAVNWFRQAPGKERELVAGILWSGGSTFYADSVKGRFTISRGNAENMLYLQMNSLRAEDTAVYYCNTGTNWGQGTLVTVSS
notes: VHH-Fc (hIgG4) fusion of the humanized VHH; also called W3156-AP3R2-1A3-z12-hIgG4; W3156 antibody; not shown: Fc of human IgG4
For B1, the “Absorbance at 450 nm” value (Factor VIII) was 0.06, the “Absorbance at 450 nm” value (FGFR.his) was 0.14 and the “Absorbance at 450 nm” value (CD147.his) was 0.07. The “Absorbance at 450 nm” value (CTLA4.his) was 0.08, the “Absorbance at 450 nm” value (W317-hPro1.his) was 0.06 and the “Absorbance at 450 nm” value (CD22.his) was 0.06. The “Absorbance at 450 nm” value (VEGF.his) was 0.09, the “Absorbance at 450 nm” value (CD3.his) was 0.07 and the “Absorbance at 450 nm” value (CD40) was 0.25. The “Absorbance at 450 nm” value (human serum Albumin) was 0.42, the Kd [1] was 0.208 nM and the koff [1] was 0.000385 s⁻¹. It also gave a kon [1] of 1.85e+06 M⁻¹ s⁻¹, a Kd [2] of 0.251 nM and a koff [2] of 0.000478 s⁻¹. The kon [2] was 1.91e+06 M⁻¹ s⁻¹, the Kd [3] was 19.4 nM and the koff [3] was 0.0114 s⁻¹. For the same binder, the kon [3] was 589000 M⁻¹ s⁻¹.
